Source: the Immune Epitope Database (IEDB)

What follows are sequences tested against HLA-A*02:01 (assay: IEDB peptide-MHC binding, purified MHC/competitive/radioactivity; filed as Kd, often an IC50 or EC50 that approximates it; ≥ and ≤ were set here for values at or beyond the usual limits of such assays). Conditions: source organism: Trypanosoma cruzi.
With LLYSDDALHL the Kd was 317 nM.
GIRPYEILA showed a Kd of 33 nM.
For LLLGLWGFAA, the Kd was 534 nM.
For SVYVDAKLV, the Kd was 102 nM.
IVMGNGTLV gave a Kd of 998 nM.
For VLLPSLFLLL, the Kd was 99 nM.
In the case of VLAKDGTEV, the Kd is reported as 67 nM.
LLLLGLWGL gave a Kd of 22 nM.
LLGLWGLTGL showed a Kd of 1.3 nM.
With KLFPEVIDL the Kd was 203 nM.
WVFPESISPV was tested, and the Kd was 109 nM.
FLYNRPLSV showed a Kd of 146 nM.
Work on IAGGVMAVV yielded a Kd of 196 nM.
FLLLGLWGFA showed a Kd of 207 nM.
MLQDGNKGSV was tested, and the Kd was 840 nM.
Work on VLLPSLFLL yielded a Kd of 36 nM.
PLLLLGLWGL gave a Kd of 643 nM.
With LLPSLFLLL the Kd was 125 nM.
FVDYNFTIV showed a Kd of 240 nM.
Sequence FVNHDFTVV has a Kd of 300 nM.
